Starred links: 1 amine or outer side, 2 acyl side, 3 side chain; linkers in the order of their positions; H or OH if unused. Positions of bridges follow the written chain, without caps; N, C: chain ends. Non-standard residues stand in square brackets, D forms with d. Groups on a side chain read outwards from the residue. Primed or numbered codes have the meaning given here. No end group written: not given here. *: point of attachment. PyrS2″ = (S)-3-amino-1-((pent-4-en-1-yloxy)carbonyl)pyrrolidine-3-carboxylic acid (stapling residue), C=CCCCOC(=O)N1CC[C@@](N[*:1])(C(=O)[*:2])C1; B5(4) = 2,2-bis(4-pentenyl)glycine = 2-amino-2-(pent-4-en-1-yl)hept-6-enoic acid (stitching residue), C=CCCCC(CCCC=C)(N[*:1])C(=O)[*:2]; B5(5) = 2,2-bis(4-pentenyl)glycine, 2-amino-2-(pent-4-en-1-yl)hept-6-enoic acid (stitching residue), C=CCCCC(CCCC=C)(N[*:1])C(=O)[*:2]; (CH2NMe2)4SEF = (S)-2-amino-3-(4-(3-(dimethylamino)prop-1-yn-1-yl)phenyl)propanoic acid, CN(C)CC#Cc1ccc(C[C@H](N[*:1])C(=O)[*:2])cc1; TfeGA = (S)-2-amino-3-((carboxymethyl)(2,2,2-trifluoroethyl)amino)propanoic acid, O=C([C@H](CN(CC(=O)[*:3])CC(F)(F)F)N[*:1])[*:2]; B5(31) = 2-amino-2-(pent-4-en-1-yl)hept-6-enoic acid (bis-pentenylglycine, stitching residue), C=CCCCC(CCCC=C)(N[*:1])C(=O)[*:2]; PyrS2 = (S)-3-amino-1-((pent-4-en-1-yloxy)carbonyl)pyrrolidine-3-carboxylic acid, C=CCCCOC(=O)N1CC[C@@](N[*:1])(C(=O)[*:2])C1; 5iPr3COOHF = (S)-3-(2-amino-2-carboxyethyl)-5-isopropylbenzoic acid, CC(C)c1cc(C[C@H](N[*:1])C(=O)[*:2])cc(C(=O)[*:3])c1; (3C)TriAzLys = (S)-2-amino-6-(4-propyl-1H-1,2,3-triazol-1-yl)hexanoic acid, CCCc1cn(CCCC[C@H](N[*:1])C(=O)[*:2])nn1; (bismethoxyethylamine)GlnR″ = N5,N5-bis(2-methoxyethyl)-L-glutamine, COCCN(CCOC)C(=O)CC[C@H](N[*:1])C(=O)[*:2]; Lithocholoyl = C[C@H](CCC(=O)*)[C@H]1CC[C@H]2[C@@H]3CC[C@@H]4C[C@H](O)CC[C@]4(C)[C@H]3CC[C@]12C; MorphAsn = (S)-2-amino-4-morpholino-4-oxobutanoic acid, O=C(C[C@H](N[*:1])C(=O)[*:2])N1CCOCC1; B5(3) = 2,2-bis(4-pentenyl)glycine (stitching residue), C=CCCCC(CCCC=C)(N[*:1])C(=O)[*:2]; Me3AdamantC = 3,5,7-trimethyladamantane-1-carbonyl, CC12CC3(C)CC(C)(C1)CC(C(=O)*)(C2)C3; CO2Hex = N-term cyclohexyl hydrogen carbonate, O=C(OC1CCCCC1)*; CO2Ph = N-term phenyl hydrogen carbonate, O=C(Oc1ccccc1)*; Nva(5-morpholino) = N[C@@H](CCCN1CCOCC1)C(=O)O; Phe(3-COOH) = N[C@@H](Cc1cccc(C(=O)O)c1)C(=O)O; 2F3MeF = Cc1cccc(C[C@H](N[*:1])C(=O)[*:2])c1F; Phe(2-CF3) = N[C@@H](Cc1ccccc1C(F)(F)F)C(=O)O; Phe(2-Cl) = N[C@@H](Cc1ccccc1Cl)C(=O)O; Bta = N[C@@H](Cc1csc2ccccc12)C(=O)O; Lys(iPr) = CC(C)NCCCC[C@H](N)C(=O)O; αAllylPro = C=CC[C@@]1(C(=O)O)CCCN1; Azidoacetyl = [N-]=[N+]=NCC(=O)*; tBuAla = CC(C)(C)C[C@H](N)C(=O)O; 3Thi = N[C@@H](Cc1ccsc1)C(=O)O; Cha = N[C@@H](CC1CCCCC1)C(=O)O; hSer = N[C@@H](CCO)C(=O)O; 34ClF = not defined here; PEG2′ = not defined here; Aib = CC(C)(N)C(=O)O; Moc = COC(=O)*
B1: I-1055 (peptide)
peptide: Azidoacetyl-[αAllylPro]D[tBuAla][B5(5)]DDAAFN[PyrS2]F[Bta]H-NH2
modifications: staple 1-4, 4-11
B2: I-1056 (peptide)
peptide: Azidoacetyl-[αAllylPro]D[tBuAla][B5(5)][3Thi][TfeGA]AAFN[PyrS2]D[Bta]Q-NH2
modifications: staple 1-4, 4-11; also: staple isomer unspecified: earlier eluting HPLC peak
B3: I-1057 (peptide)
peptide: Azidoacetyl-[αAllylPro]D[tBuAla][B5(5)][3Thi][TfeGA]AAFN[PyrS2]D[Bta]Q-NH2
modifications: staple 1-4, 4-11; also: staple isomer unspecified: later eluting HPLC peak
B4: I-1058 (peptide)
peptide: Azidoacetyl-[αAllylPro]D[tBuAla][B5(5)]DDAAFN[PyrS2][3Thi][Bta][dT]-NH2
modifications: staple 1-4, 4-11
B5: I-1060 (peptide)
peptide: Azidoacetyl-[αAllylPro]D[tBuAla][B5(5)]DDAAFT[PyrS2][Phe(2-Cl)][Bta][dT]-NH2
modifications: staple 1-4, 4-11
B6: I-2322 (peptide)
peptide: Ac-[αAllylPro]D[tBuAla][B5(4)]D[Phe(3-COOH)][(bismethoxyethylamine)GlnR″]AFL[PyrS2″][2F3MeF][Bta]A-NH2
modifications: staple 1-4, 4-11
B7: I-2324 (peptide)
peptide: Moc-[αAllylPro]D[tBuAla][B5(3)]D[Phe(3-COOH)]AAFL[PyrS2″][Phe(2-Cl)][Bta]A-NH2
modifications: staple 1-4, 4-11
B8: I-2325 (peptide)
peptide: CO2Hex-[αAllylPro]D[tBuAla][B5(31)]D[Phe(3-COOH)]AAFL[PyrS2″][Phe(2-Cl)][Bta]A-NH2
modifications: staple 1-4, 4-11
B9: I-2326 (peptide)
peptide: CO2Ph-[αAllylPro]D[tBuAla][B5(31)]DDAAFQ[PyrS2″][3Thi][Bta]H-NH2
modifications: staple 1-4, 4-11
B10: I-2327 (peptide)
peptide: CO2Ph-[αAllylPro]D[tBuAla][B5(31)]D[Phe(3-COOH)]AAFL[PyrS2″][Phe(2-Cl)][Bta]A-NH2
modifications: staple 1-4, 4-11
B11: I-2331 (peptide)
peptide: Ac-[αAllylPro]E[tBuAla][B5(31)]NTAAFN[PyrS2″][3Thi][Bta]Q-NH2
modifications: staple 1-4, 4-11; also: staple isomer, earlier eluting HPLC peak
B12: I-2332 (peptide)
peptide: Ac-[αAllylPro]E[tBuAla][B5(31)]NTAAFN[PyrS2″][3Thi][Bta]Q-NH2
modifications: staple 1-4, 4-11
B13: I-2333 (peptide)
peptide: Ac-[αAllylPro]N[tBuAla][B5(31)]NTAAFN[PyrS2″][3Thi][Bta]Q-NH2
modifications: staple 1-4, 4-11
B14: I-2334 (peptide)
peptide: Ac-[αAllylPro]D[tBuAla][B5(31)]NTAAFT[PyrS2″][3Thi][Bta]A-NH2
modifications: staple 1-4, 4-11
B15: I-2335 (peptide)
peptide: Ac-[αAllylPro]D[tBuAla][B5(3)]N[Phe(3-COOH)]AAFN[PyrS2″][3Thi][Bta]Q-NH2
modifications: staple 1-4, 4-11
B16: I-2405 (peptide)
peptide: {2‑(3-(allyloxy)phenyl)acetyl}-PD[tBuAla][B5(5)]D[TfeGA]AAFL[PyrS2][3Thi][Bta]Q-NH2
modifications: staple 4-11, N-4; also: staples hydrogenated, -CH=CH- reduced to -CH2-CH2-
B17: I-2408 (peptide)
peptide: Ac-[αAllylPro]D[tBuAla][B5(5)]NT[Aib]AFL[PyrS2][3Thi][Bta]Q-NH2
modifications: staple 1-4, 4-11
B18: I-2411 (peptide)
peptide: Ac-[αAllylPro]D[tBuAla][B5(5)]NT[Aib]AFN[PyrS2″][3Thi][Bta]A-NH2
modifications: staple 1-4, 4-11
B19: I-2412 (peptide)
peptide: Ac-[αAllylPro]D[tBuAla][B5(5)]NT[Aib]AFN[PyrS2″][3Thi][Bta]F-NH2
modifications: staple 1-4, 4-11
B20: I-2413 (peptide)
peptide: Ac-[αAllylPro]D[tBuAla][B5(5)]NT[Aib]AFN[PyrS2″][3Thi][Bta]R-NH2
modifications: staple 1-4, 4-11
B21: I-2417 (peptide)
peptide: Ac-[αAllylPro]D[tBuAla][B5(5)]NT[Aib]AFN[PyrS2″][3Thi][34ClF]Q-NH2
modifications: staple 1-4, 4-11; reading uncertain; also: printed as Ac-PL3-Asp-Npg-B5-Asn-Thr-Aib-Ala-Phe-Asn-PyrS2-3Thi-34C1F-Gln-NH2
B22: I-2419 (peptide)
peptide: Ac-[αAllylPro]N[Cha][B5(5)]DQ[hSer]AFL[PyrS2″]F[Bta]K-NH2
modifications: staple 1-4, 4-11
B23: I-2420 (peptide)
peptide: Ac-[αAllylPro]N[Cha][B5(5)]DQNAFL[PyrS2″]F[Bta]K-NH2
modifications: staple 1-4, 4-11
B24: I-2421 (peptide)
peptide: Ac-[αAllylPro]N[Cha][B5(5)]DQQAFL[PyrS2″]F[Bta]K-NH2
modifications: staple 1-4, 4-11
B25: I-2422 (peptide)
peptide: Ac-[αAllylPro]N[Cha][B5(5)]DQSAFL[PyrS2″]F[Bta]K-NH2
modifications: staple 1-4, 4-11
B26: I-2426 (peptide)
peptide: Ac-[αAllylPro]N[Cha][B5(5)]DQ[Lys(iPr)]AFL[PyrS2″]F[Bta][MorphAsn]-NH2
modifications: staple 1-4, 4-11
B27: I-2428 (peptide)
peptide: Ac-[αAllylPro]N[Cha][B5(5)]DQ[Lys(iPr)]AFL[PyrS2″]F[Bta][Nva(5-morpholino)]-NH2
modifications: staple 1-4, 4-11
B28: I-2429 (peptide)
peptide: Ac-[αAllylPro]D[Cha][B5(5)]DQ[Lys(iPr)]AFL[PyrS2″]F[Bta]K-NH2
modifications: staple 1-4, 4-11
B29: I-2431 (peptide)
peptide: Ac-[αAllylPro]D[tBuAla][B5(5)]D[5iPr3COOHF]QAFL[PyrS2″][Phe(2-CF3)][Bta]A-NH2
modifications: staple 1-4, 4-11
B30: I-2432 (peptide)
peptide: Ac-[αAllylPro]D[tBuAla][B5(5)]D[Phe(3-COOH)]AAFL[PyrS2″][Phe(2-CF3)][Bta]S[(3C)TriAzLys]-NH2
modifications: staple 1-4, 4-11
B31: I-2438 (peptide)
peptide: Ac-[αAllylPro][hSer][tBuAla][B5(5)]DHAAFT[PyrS2″]F[Bta]Q-NH2
modifications: staple 1-4, 4-11
B32: I-2439 (peptide)
peptide: Ac-[αAllylPro][hSer][tBuAla][B5(5)]DQAAFH[PyrS2″]F[Bta]Q-NH2
modifications: staple 1-4, 4-11
B33: I-2440 (peptide)
peptide: Ac-[αAllylPro]N[tBuAla][B5(5)]DQAAFH[PyrS2″]F[Bta]Q-NH2
modifications: staple 1-4, 4-11
B34: I-1459 (peptide)
peptide: Ac-[αAllylPro]D[tBuAla][B5(5)]DDAAFQ[PyrS2][3Thi][Bta]H-NH2
modifications: staple 1-4, 4-11
B35: I-1460 (peptide)
peptide: Ac-[αAllylPro]D[tBuAla][B5(5)]DDAAFQ[PyrS2][3Thi][Bta]H-NH2
modifications: staple 1-4, 4-11
B36: I-1467 (peptide)
peptide: Ac-[αAllylPro]D[tBuAla][B5(4)]DD[(CH2NMe2)4SEF]AFL[PyrS2]F[Bta]Q
modifications: staple 1-4, 4-11
B37: I-1469 (peptide)
peptide: Ac-[αAllylPro]DK(Lithocholoyl)[B5(5)]DDAAFL[PyrS2][3Thi][Bta]Q-NH2
modifications: staple 1-4, 4-11
B38: I-1470 (peptide)
peptide: Ac-[αAllylPro]DK([PEG2′-Lithocholoyl])[B5(4)]DDAAFL[PyrS2][3Thi][Bta]Q-NH2
modifications: staple 1-4, 4-11
B39: I-1471 (peptide)
peptide: Ac-[αAllylPro]DK(Me3AdamantC)[B5(4)]DDAAFL[PyrS2][3Thi][Bta]Q-NH2
modifications: staple 1-4, 4-11

These binders were tested against full-length beta-Catenin (Uniprot ID P35222) (Homo sapiens (Human)) (UniProt P35222) (assay: fluorescence polarization competition; full-length beta-catenin, competitor 5FAM-TCF4(10-53) probe).

| Binder | EC50 | IC50 |
| --- | --- | --- |
| B1 | 7 nM | – |
| B2 | 6490 nM | – |
| B3 | 6640 nM | – |
| B4 | 14 nM | – |
| B5 | 38 nM | – |
| B6 | – | 7 nM |
| B7 | – | 83 nM |
| B8 | – | 1350 nM |
| B9 | – | 185 nM |
| B10 | – | 376 nM |
| B11 | – | 10000 nM |
| B12 | – | 10000 nM |
| B13 | – | 10000 nM |
| B14 | – | 656 nM |
| B15 | – | 7 nM |
| B16 | – | 568 nM |
| B17 | – | 10000 nM |

| Binder | EC50 | IC50 |
| --- | --- | --- |
| B18 | – | 140 nM |
| B19 | – | 267 nM |
| B20 | – | 133 nM |
| B21 | – | 158 nM |
| B22 | – | 203 nM |
| B23 | – | 2120 nM |
| B24 | – | 145 nM |
| B25 | – | 3360 nM |
| B26 | – | 46 nM |
| B27 | – | 401 nM |
| B28 | – | 10 nM |
| B29 | – | 33 nM |
| B30 | – | 60 nM |
| B31 | – | 1760 nM |
| B32 | – | 2760 nM |
| B33 | – | 360 nM |

What follows are binders tested against full-length beta-Catenin (Uniprot ID P35222) (Homo sapiens (Human)) (UniProt P35222) (assay: fluorescence polarization competition; displacement of 5FAM-TCF4(10-53) from full-length beta-catenin).
Target sequence in this assay (P35222 whole entry): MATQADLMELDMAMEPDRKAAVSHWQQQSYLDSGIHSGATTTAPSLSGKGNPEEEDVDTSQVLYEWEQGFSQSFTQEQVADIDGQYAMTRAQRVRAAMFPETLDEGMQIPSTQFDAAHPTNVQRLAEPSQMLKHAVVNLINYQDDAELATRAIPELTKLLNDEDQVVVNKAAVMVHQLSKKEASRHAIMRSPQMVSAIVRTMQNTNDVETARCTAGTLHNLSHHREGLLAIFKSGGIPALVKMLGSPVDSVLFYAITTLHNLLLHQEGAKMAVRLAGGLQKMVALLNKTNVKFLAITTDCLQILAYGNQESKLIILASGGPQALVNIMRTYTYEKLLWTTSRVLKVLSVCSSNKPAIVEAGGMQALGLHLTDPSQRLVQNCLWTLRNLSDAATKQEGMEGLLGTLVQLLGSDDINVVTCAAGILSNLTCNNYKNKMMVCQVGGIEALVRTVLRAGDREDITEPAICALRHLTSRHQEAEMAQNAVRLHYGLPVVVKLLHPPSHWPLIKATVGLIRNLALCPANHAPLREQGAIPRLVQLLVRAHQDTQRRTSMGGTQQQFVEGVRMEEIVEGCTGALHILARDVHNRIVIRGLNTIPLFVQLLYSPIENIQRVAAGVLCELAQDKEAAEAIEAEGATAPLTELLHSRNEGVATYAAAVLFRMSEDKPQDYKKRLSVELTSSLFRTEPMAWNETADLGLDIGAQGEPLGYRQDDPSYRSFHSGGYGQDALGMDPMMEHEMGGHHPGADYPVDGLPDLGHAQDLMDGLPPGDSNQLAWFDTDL

| Binder | IC50 |
| --- | --- |
| B34 | 5 nM |
| B35 | 7 nM |
| B36 | 12 nM |
| B37 | 95 nM |
| B38 | 57 nM |
| B39 | 34 nM |

Source: patent US20240116985A1, “STAPLED PEPTIDES AND METHODS THEREOF” (priority 2020, published 2024)
